From patent publication US12029800B2, “Composite particles including anionic polymer and cationic polymer or peptide, and method for producing composite particles” (POLA CHEMICAL INDUSTRIES, INC., priority 2016, dated 2024) come the findings set out here.

The data set in a line: Test Example 3: particle diameter of composite particles after adding PBS (imitating the inside of the living body). In kind it is physicochemical. To be noted: PBS 100% (the same environment as the inside of the skin), FIG. 1. The method, then:
An aqueous solution including a composite particle of sodium hyaluronate and a cationic polymer that was each of a primary amine and a quaternary ammonium was prepared in a similar manner as in Test Example 1.
By adding a PBS buffer solution constituted of the ions that are universally found in the living body into an aqueous solution of the prepared composite particles, it was investigated how the composite particles under the environment imitating the inside environment of the living body behaved.
Specifically, PBS was added into an aqueous solution of the prepared composite particles, and the particle diameter of a composite particle in the aqueous solution was measured in a similar manner as in Test Example 2.

Regarding Protamine, the “Particle diameter of the composite particle with sodium hyaluronate at addition amount of PBS 100%” value is “particle diameter was not able to be almost measured”. Take Polylysine: the “Particle diameter of the composite particle with sodium hyaluronate at addition amount of PBS 100%” value was “particle diameter was not able to be almost measured”.
